We go through four molecules from patent publication US20200317768A1 (published 2020).

Holding throughout (assay): SPR (Biacore), antibody captured, FcgR analyte
The target of test [1] is T1, human FcγRIIb extracellular domain, C-terminal His-tag (human, UniProt P31994 43-217).
T1 construct: also called human FcgRIIb; FcgRIIb
T1 sequence: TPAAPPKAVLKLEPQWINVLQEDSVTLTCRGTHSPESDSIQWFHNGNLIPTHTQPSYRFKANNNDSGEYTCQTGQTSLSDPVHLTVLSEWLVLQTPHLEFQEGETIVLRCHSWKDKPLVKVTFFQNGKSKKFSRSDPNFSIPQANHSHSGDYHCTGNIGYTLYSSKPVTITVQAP
As to the method:
(§1) The kinetic analysis of interactions between these antibodies and FcγR was carried out using BIACORE® T200 or BIACORE® 4000 (GE Healthcare). HBS-EP+ (GE Healthcare) was used as the running buffer, and the measurement temperature was set to 25° C. A chip produced by immobilizing Protein A. Protein A/G or mouse anti-human IgG kappa light chain (BD Biosciences) onto a Series S Sensor Chip CM4 or CM5 (GE Healthcare) by the amine-coupling method was used. […] After the measurement, the antibody captured on the chip was washed off by allowing reaction with 10 mM glycine-HCl, pH1.5 and 25 mM NaOH so that the chip was regenerated and used repeatedly. The sensorgrams obtained as measurement results were analyzed by the 1:1 Langmuir binding model using the BIACORE® Evaluation Software to calculate the binding rate constant ka (L/mol/s) and dissociation rate constant kd (l/s), and the dissociation constant KD (mol/L) was calculated from these values. […] Regarding such interactions, KD values were calculated using the following 1:1 binding model described in BIACORE® T100 Software Handbook BR1006-48 Edition AE.
(§2) The behavior of interacting molecules according to the 1:1 binding model on BIACORE® can be described by Equation 1: Req=C·R max/(KD+C)+RI, wherein, Req is a plot of steady-state binding levels to analyte concentration. C is concentration, RI is bulk refractive index contribution in the sample, and Rmax is analyte binding capacity of the surface. When this equation is rearranged, KD can be expressed as Equation 2: KD=C·Rmax/(Req−RI)−C. KD can be calculated by substituting the values of Rmax, RI, and C into Equation 1 or Equation 2. From the current measurement conditions, RI=0, C=2 μmol/L can be used.

Test [2] addresses T2, human FcγRIIIaV extracellular domain, C-terminal His-tag (human, UniProt P08637 17-208).
T2 construct: also called human FcgRIIIaV; FcgRIIIaV
As to the method: as §1, §2

The target of test [3] is T3, cynomolgus monkey FcγRIIa2 extracellular domain, C-terminal His-tag (cynomolgus monkey).
T3 construct: also called cyno FcγRIIa2; cynoFcgRIIa2
T3 chain: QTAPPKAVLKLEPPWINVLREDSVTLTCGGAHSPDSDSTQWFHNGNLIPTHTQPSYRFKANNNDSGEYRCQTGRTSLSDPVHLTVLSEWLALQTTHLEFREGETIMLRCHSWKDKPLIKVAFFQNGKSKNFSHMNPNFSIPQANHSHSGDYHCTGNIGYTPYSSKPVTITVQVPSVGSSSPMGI
As to the method:
as §1, §2

In test [4] the target is T4, cynomolgus monkey FcγRIIa1 extracellular domain, C-terminal His-tag (cynomolgus monkey).
T4 construct: also called cyno FcγRIIa1; cynoFcgRIIa1
T4 chain: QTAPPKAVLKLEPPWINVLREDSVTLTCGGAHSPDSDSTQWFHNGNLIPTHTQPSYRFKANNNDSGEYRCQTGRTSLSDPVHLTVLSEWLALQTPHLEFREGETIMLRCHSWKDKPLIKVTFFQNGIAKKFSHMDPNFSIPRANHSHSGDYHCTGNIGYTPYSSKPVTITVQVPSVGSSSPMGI
Here is the method:
as §1, §2

The target in test [5] is T5, cynomolgus monkey FcγRIIa3 extracellular domain, C-terminal His-tag (cynomolgus monkey).
T5 construct: also called cyno FcγRIIa3; cynoFcgRIIa3
T5 chain: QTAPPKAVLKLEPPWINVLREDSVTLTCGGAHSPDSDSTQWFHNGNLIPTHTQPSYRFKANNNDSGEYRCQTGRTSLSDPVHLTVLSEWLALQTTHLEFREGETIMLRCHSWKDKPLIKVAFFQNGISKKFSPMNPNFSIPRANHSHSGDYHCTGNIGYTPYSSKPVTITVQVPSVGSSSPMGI
Here is the method:
as §1, §2

The target of test [6] is T6, human FcγRIIaR extracellular domain, C-terminal His-tag (human, UniProt P12318 34-217).
T6 construct: also called human FcγRIIa (type R); FcgRIIaR
T6 chain: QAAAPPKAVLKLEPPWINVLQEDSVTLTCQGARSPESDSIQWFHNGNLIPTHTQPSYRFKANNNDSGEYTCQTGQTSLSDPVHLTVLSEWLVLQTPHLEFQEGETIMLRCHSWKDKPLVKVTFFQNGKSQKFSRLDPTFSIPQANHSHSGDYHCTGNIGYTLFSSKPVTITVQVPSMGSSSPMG
Here is the method:
as §1, §2

The target of test [7] is T7, cynomolgus monkey FcγRIIb extracellular domain, C-terminal His-tag (cynomolgus monkey).
T7 construct: also called cyno FcγRIIb; cynoFcγRIIb
T7 chain: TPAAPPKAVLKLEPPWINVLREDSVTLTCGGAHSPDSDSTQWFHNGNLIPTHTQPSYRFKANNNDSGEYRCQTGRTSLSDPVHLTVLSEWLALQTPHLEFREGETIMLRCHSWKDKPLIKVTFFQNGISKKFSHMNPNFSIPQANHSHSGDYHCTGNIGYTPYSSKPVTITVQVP
Here is the method: as §1, §2

In test [8] the target is T8, human FcγRIIaH extracellular domain, C-terminal His-tag (human, UniProt P12318 34-217).
T8 construct: also called human FcγRIIa (type H); FcgRIIaH
T8 sequence: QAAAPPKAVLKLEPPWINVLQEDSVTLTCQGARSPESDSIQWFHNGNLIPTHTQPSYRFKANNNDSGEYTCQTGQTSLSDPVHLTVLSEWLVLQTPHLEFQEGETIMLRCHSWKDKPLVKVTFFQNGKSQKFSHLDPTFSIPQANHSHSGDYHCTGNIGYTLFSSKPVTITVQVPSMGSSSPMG
As to the method: as §1, §2

The target of test [9] is T9, cynomolgus monkey FcγRIIIaS extracellular domain, C-terminal His-tag (cynomolgus monkey, UniProt Q8SPW2 21-206 at identity 1.00)).
T9 construct: also called cyno FcγRIIIaS; cynoFcγRIIIaS
T9 chain: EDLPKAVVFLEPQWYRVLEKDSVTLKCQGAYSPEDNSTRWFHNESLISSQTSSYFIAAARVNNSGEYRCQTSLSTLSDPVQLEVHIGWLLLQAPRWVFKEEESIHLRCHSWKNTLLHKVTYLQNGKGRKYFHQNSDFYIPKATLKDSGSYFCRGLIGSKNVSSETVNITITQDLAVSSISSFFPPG
As to the method: as §1, §2

T2 sequence (P08637 17-208 F176V): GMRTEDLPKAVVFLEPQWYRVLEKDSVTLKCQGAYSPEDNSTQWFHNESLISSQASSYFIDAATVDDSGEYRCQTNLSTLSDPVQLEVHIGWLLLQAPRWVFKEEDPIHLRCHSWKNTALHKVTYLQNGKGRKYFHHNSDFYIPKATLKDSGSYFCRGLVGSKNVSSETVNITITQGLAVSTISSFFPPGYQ

B1: M103205H795-MY204/M103202L889-SK1 (antibody, human IgG1, kappa)
heavy: QVTLKESGPVLVKPTETLTLTCTVSGIDLSHDDISWVRQAPGKGLEWVGIISYAGSTYYASWAKGRLTISKDTSKNQVVLTMTNMDPVDTATYYCARGVPAYSHGGDLWGQGTLVTVSSASTKGPSVFPLAPSSKSTSGGTAALGCLVKDYFPEPVTVSWNSGALTSGVHTFPAVLQSSGLYSLSSVVTVPSSSLGTQTYICNVNHKPSNTKVDKKVEPKSCDKTHTCPPCPAPELLNGPVVFLFPPKPKDTLMISRTPEVTCVVVDVSEEDPEVKFNWYVDGVEVHNAKTKPREELYNSTYRVVSVLTVLHQDWLNGKEYKCKVSNKALPKPIEKTISKAKGQPREPQVYTLPPSREEMTKNQVSLTCLVKGFYPSDIAVEWESNGQPENNYKTTPPVLDSDGSFFLYSKLTVDKSRWQQGNVFSCSVMHEALHNHYTQKSLSLSP
light: DIVMTQSPATLSLSPGERATLSCTSSQSVYHANWLSWFQQKPGQPPKLLIYWASTLAYGVPSRFSGSGSGTDFTLTISSLQPEDAATYYCAGGYGGGRYAFGQGTKVEIKRTVAAPSVFIFPPSDEQLKSGTASVVCLLNNFYPREAKVQWKVDNALQSGNSQESVTEQDSKDSTYSLSSTLTLSKADYEKHKVYACEVTHQGLSSPVTKSFNRGEC
notes: Substitutions introduced into M103205H795-SG1; expressed with M103202L889-SK1 as light chain
A word on the Kd: it is a measure of binding affinity in units of concentration. On to B1, for which the Kd in test [1] was 1300 nM; in test [2], 13000 nM; in test [3], 1400 nM; in [4], 1300 nM; in [5], 5200 nM; in test [6], 2800 nM. The values for the equilibrium dissociation constant (Kd) in test [7], in [8] and in test [9] were 810 nM, 1300 nM and 3500 nM, respectively.

B2: M103205H795-MY206/M103202L889-SK1 (antibody, human IgG1, kappa)
heavy: QVTLKESGPVLVKPTETLTLTCTVSGIDLSHDDISWVRQAPGKGLEWVGIISYAGSTYYASWAKGRLTISKDTSKNQVVLTMTNMDPVDTATYYCARGVPAYSHGGDLWGQGTLVTVSSASTKGPSVFPLAPSSKSTSGGTAALGCLVKDYFPEPVTVSWNSGALTSGVHTFPAVLQSSGLYSLSSVVTVPSSSLGTQTYICNVNHKPSNTKVDKKVEPKSCDKTHTCPPCPAPELLNGPVVFLFPPKPKDTLMISRTPEVTCVVVDVSDEDPEVKFNWYVDGVEVHNAKTKPREELYNSTYRVVSVLTVLHQDWLNGKEYKCKVSNKALPKPIEKTISKAKGQPREPQVYTLPPSREEMTKNQVSLTCLVKGFYPSDIAVEWESNGQPENNYKTTPPVLDSDGSFFLYSKLTVDKSRWQQGNVFSCSVMHEALHNHYTQKSLSLSP
light: DIVMTQSPATLSLSPGERATLSCTSSQSVYHANWLSWFQQKPGQPPKLLIYWASTLAYGVPSRFSGSGSGTDFTLTISSLQPEDAATYYCAGGYGGGRYAFGQGTKVEIKRTVAAPSVFIFPPSDEQLKSGTASVVCLLNNFYPREAKVQWKVDNALQSGNSQESVTEQDSKDSTYSLSSTLTLSKADYEKHKVYACEVTHQGLSSPVTKSFNRGEC
notes: as for B1
As for B2, the Kd is 800 nM in test [1]; 8200 nM in test [2]; 790 nM in test [3]; 520 nM in test [4]; 5000 nM in test [5]; 1400 nM in test [6]. Also, the results for the Kd in test [7], in test [8] and in test [9] were 450 nM, 1000 nM and 5300 nM, respectively.

B3: M103205H795-MY207/M103202L889-SK1 (antibody, human IgG1, kappa)
heavy: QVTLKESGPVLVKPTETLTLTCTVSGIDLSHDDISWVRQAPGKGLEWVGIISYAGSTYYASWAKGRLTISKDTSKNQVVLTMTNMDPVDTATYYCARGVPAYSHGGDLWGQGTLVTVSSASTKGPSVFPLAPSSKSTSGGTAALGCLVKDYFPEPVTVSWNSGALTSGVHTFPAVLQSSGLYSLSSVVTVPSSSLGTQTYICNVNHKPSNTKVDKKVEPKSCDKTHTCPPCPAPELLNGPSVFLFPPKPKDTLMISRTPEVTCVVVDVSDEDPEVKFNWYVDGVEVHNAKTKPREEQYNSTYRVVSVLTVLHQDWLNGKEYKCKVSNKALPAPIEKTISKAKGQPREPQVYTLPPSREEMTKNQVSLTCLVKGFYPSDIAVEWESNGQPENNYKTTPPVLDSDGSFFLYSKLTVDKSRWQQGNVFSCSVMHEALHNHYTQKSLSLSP
light: DIVMTQSPATLSLSPGERATLSCTSSQSVYHANWLSWFQQKPGQPPKLLIYWASTLAYGVPSRFSGSGSGTDFTLTISSLQPEDAATYYCAGGYGGGRYAFGQGTKVEIKRTVAAPSVFIFPPSDEQLKSGTASVVCLLNNFYPREAKVQWKVDNALQSGNSQESVTEQDSKDSTYSLSSTLTLSKADYEKHKVYACEVTHQGLSSPVTKSFNRGEC
notes: as for B1
Regarding B3, the Kd in test [1] is 1600 nM; in test [2], 8000 nM; in test [3], 1400 nM; in test [4], 1500 nM; in [5], 69000 nM; in test [6], 2800 nM. Moreover, the results for the dissociation constant (Kd) in test [7], in [8] and in [9] were 820 nM, 13000 nM and 4100 nM, respectively.

B4: M103205H795-MY205/M103202L889-SK1 (antibody, human IgG1, kappa)
heavy: QVTLKESGPVLVKPTETLTLTCTVSGIDLSHDDISWVRQAPGKGLEWVGIISYAGSTYYASWAKGRLTISKDTSKNQVVLTMTNMDPVDTATYYCARGVPAYSHGGDLWGQGTLVTVSSASTKGPSVFPLAPSSKSTSGGTAALGCLVKDYFPEPVTVSWNSGALTSGVHTFPAVLQSSGLYSLSSVVTVPSSSLGTQTYICNVNHKPSNTKVDKKVEPKSCDKTHTCPPCPAPELLNGPSVFLFPPKPKDTLMISRTPEVTCVVVDVSDEDPEVKFNWYVDGVEVHNAKTKPREELYNSTYRVVSVLTVLHQDWLNGKEYKCKVSNKALPKPIEKTISKAKGQPREPQVYTLPPSREEMTKNQVSLTCLVKGFYPSDIAVEWESNGQPENNYKTTPPVLDSDGSFFLYSKLTVDKSRWQQGNVFSCSVMHEALHNHYTQKSLSLSP
light: DIVMTQSPATLSLSPGERATLSCTSSQSVYHANWLSWFQQKPGQPPKLLIYWASTLAYGVPSRFSGSGSGTDFTLTISSLQPEDAATYYCAGGYGGGRYAFGQGTKVEIKRTVAAPSVFIFPPSDEQLKSGTASVVCLLNNFYPREAKVQWKVDNALQSGNSQESVTEQDSKDSTYSLSSTLTLSKADYEKHKVYACEVTHQGLSSPVTKSFNRGEC
notes: also called MS1032LO06-MY205
In the case of B4, the Kd in [1] was determined as 560 nM; in test [2] it was 15000 nM; in [3] it was 1100 nM; in test [4], 900 nM; in [5] it was 30000 nM; in test [6], 1300 nM. Moreover, the Kd in test [7] stood at 250 nM; in test [8], 470 nM; in test [9] it was 6000 nM.
